Molecular target: interferon gamma receptors on HeLa cells (UniProt P15260)
Assay: cell-based or functional assay

Sequence of UniProt P15260 (P15260 18-489 limits assumed): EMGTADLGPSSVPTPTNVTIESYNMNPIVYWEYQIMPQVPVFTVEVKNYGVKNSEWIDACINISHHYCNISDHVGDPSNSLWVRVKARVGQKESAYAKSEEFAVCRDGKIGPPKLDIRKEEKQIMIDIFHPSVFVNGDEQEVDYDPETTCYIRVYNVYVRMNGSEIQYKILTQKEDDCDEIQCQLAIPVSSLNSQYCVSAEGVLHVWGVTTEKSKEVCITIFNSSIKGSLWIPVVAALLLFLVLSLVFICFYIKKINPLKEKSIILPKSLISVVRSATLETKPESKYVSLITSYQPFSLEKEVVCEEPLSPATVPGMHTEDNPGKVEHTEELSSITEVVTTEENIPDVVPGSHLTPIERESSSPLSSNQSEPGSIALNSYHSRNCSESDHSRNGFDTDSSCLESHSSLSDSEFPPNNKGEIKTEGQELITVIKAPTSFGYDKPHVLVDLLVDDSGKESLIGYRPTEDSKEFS

specific activity as percent of the corresponding non-PEGylated interferon gamma variant, Primary Assay	specific activity, Primary Assay (ISRE-luciferase reporter in HeLa cells)	interferon gamma activity, Primary Assay (ISRE-luciferase reporter in HeLa cells), culture medium 24 h after transfection	Substance
15%	2.4e+06 AU/mg	–	interferon gamma variant N59C+S99T (full-length) PEGylated with mPEG-MAL (5 kDa) (from UniProt P01579 24-161) (ligand)
–	–	5.1e+06 AU/ml	interferon gamma S99T variant (full-length, expressed from pIGY-48 in CHO K1 cells) (from UniProt P01579 24-161) (ligand)
15%	1.3e+06 AU/mg	–	interferon gamma variant N16C+S99T (full-length) PEGylated with mPEG-OPSS (10 kDa) (from UniProt P01579 24-161) (ligand)
–	–	1.3e+07 AU/ml	interferon gamma E38N+S40T+S99T variant (full-length, expressed from pIGY-54 in CHO K1 cells) (from UniProt P01579 24-161) (ligand)

Reference: patent publication US20030138403A1
